FireProtDB (doi:10.1002/cbic.201402128)
Several values for one entry are separate records, joined by “and”; a condition that tells them apart may be missing. Equal values may be shown once.

B1: Haloalkane dehalogenase, D4Z2G1 (parent)
chain: MSLGAKPFGEKKFIEIKGRRMAYIDEGTGDPILFQHGNPTSSYLWRNIMPHCAGLGRLIACDLIGMGDSDKLDPSGPERYAYAEHRDYLDALWEALDLGDRVVLVVHDWGSALGFDWARRHRERVQGIAYMEAIAMPIEWADFPEQDRDLFQAFRSQAGEELVLQDNVFVEQVLPGLILRPLSEAEMAAYREPFLAAGEARRPTLSWPRQIPIAGTPADVVAIARDYAGWLSESPIPKLFINAEPGALTTGRMRDFCRTWPNQTEITVAGAHFIQEDSPDEIGAAIAAFVRRLRPA

Variants of: B1
Settings: Sphingobium indicum (strain DSM 16413 / CCM 7287 / MTCC 6362 / UT26 / NBRC 101211 / UT26S); pH 7.5; Thermal; fluorescence; Na-Hepes 50 mM; reversible: no; structure 1MJ5; whole UniProt chain shown

Variant | Tm | change of melting temperature, mutant - wild type (higher = more stable)
MSLGAKPFGEKKFIEIKGRRMAYIDEGTGAPILFQHGNPTSSYLWRNIMPHCAGLGRLIACDLIGMGDSDKLDPSGPERYAYAEHRDYLDALWEALDLGDRVVLVVHDWGSALGFDWARRHRERVQGIAYMEAIAMPIEWADFPEQDRDLFQAFRSQAGEELVLQDNVFVEQVLPGLILRPLSEAEMAAYREPFLAAGEARRPTLSWPRQIPIAGTPADVVAIARDYAGWLSESPIPKLFINAEPGALTTGRMRDFCRTWPNQTEITVAGAHFIQEDSPDEIGAAIAAFVRRLRPA [D30A] | 51 °C | 0 °C
MSLGAKPFGEKKFIEIKGRRMAYIDEGTGHPILFQHGNPTSSYLWRNIMPHCAGLGRLIACDLIGMGDSDKLDPSGPERYAYAEHRDYLDALWEALDLGDRVVLVVHDWGSALGFDWARRHRERVQGIAYMEAIAMPIEWADFPEQDRDLFQAFRSQAGEELVLQDNVFVEQVLPGLILRPLSEAEMAAYREPFLAAGEARRPTLSWPRQIPIAGTPADVVAIARDYAGWLSESPIPKLFINAEPGALTTGRMRDFCRTWPNQTEITVAGAHFIQEDSPDEIGAAIAAFVRRLRPA [D30H] | 51 °C | 0 °C
MSLGAKPFGEKKFIEIKGRRMAYIDEGTGEPILFQHGNPTSSYLWRNIMPHCAGLGRLIACDLIGMGDSDKLDPSGPERYAYAEHRDYLDALWEALDLGDRVVLVVHDWGSALGFDWARRHRERVQGIAYMEAIAMPIEWADFPEQDRDLFQAFRSQAGEELVLQDNVFVEQVLPGLILRPLSEAEMAAYREPFLAAGEARRPTLSWPRQIPIAGTPADVVAIARDYAGWLSESPIPKLFINAEPGALTTGRMRDFCRTWPNQTEITVAGAHFIQEDSPDEIGAAIAAFVRRLRPA [D30E] | 51 °C | 0 °C
MSLGAKPFGEKKFIEIKGRRMAYIDEGTGVPILFQHGNPTSSYLWRNIMPHCAGLGRLIACDLIGMGDSDKLDPSGPERYAYAEHRDYLDALWEALDLGDRVVLVVHDWGSALGFDWARRHRERVQGIAYMEAIAMPIEWADFPEQDRDLFQAFRSQAGEELVLQDNVFVEQVLPGLILRPLSEAEMAAYREPFLAAGEARRPTLSWPRQIPIAGTPADVVAIARDYAGWLSESPIPKLFINAEPGALTTGRMRDFCRTWPNQTEITVAGAHFIQEDSPDEIGAAIAAFVRRLRPA [D30V] | 49 °C | -2 °C
MSLGAKPFGEKKFITIKGRRMAYIDEGTGDPILFQHGNPTSSYLWRNIMPHCAGLGRLIACDLIGMGDSDKLDPSGPERYAYAEHRDYLDALWEALDLGDRVVLVVHDWGSALGFDWARRHRERVQGIAYMEAIAMPIEWADFPEQDRDLFQAFRSQAGEELVLQDNVFVEQVLPGLILRPLSEAEMAAYREPFLAAGEARRPTLSWPRQIPIAGTPADVVAIARDYAGWLSESPIPKLFINAEPGALTTGRMRDFCRTWPNQTEITVAGAHFIQEDSPDEIGAAIAAFVRRLRPA [E15T] | 52 °C | 1 °C
MSLGAKPFGEKKFIEIKGRRMAYIDEGTGDPILFVHGNPTSSYLWRNIMPHCAGLGRLIACDLIGMGDSDKLDPSGPERYAYAEHRDYLDALWEALDLGDRVVLVVHDWGSALGFDWARRHRERVQGIAYMEAIAMPIEWADFPEQDRDLFQAFRSQAGEELVLQDNVFVEQVLPGLILRPLSEAEMAAYREPFLAAGEARRPTLSWPRQIPIAGTPADVVAIARDYAGWLSESPIPKLFINAEPGALTTGRMRDFCRTWPNQTEITVAGAHFIQEDSPDEIGAAIAAFVRRLRPA [Q35V] | 48.5 °C | -2.5 °C
MSLGAKPFGEKKFIEIKGRRMAYIDEGTGDPILFIHGNPTSSYLWRNIMPHCAGLGRLIACDLIGMGDSDKLDPSGPERYAYAEHRDYLDALWEALDLGDRVVLVVHDWGSALGFDWARRHRERVQGIAYMEAIAMPIEWADFPEQDRDLFQAFRSQAGEELVLQDNVFVEQVLPGLILRPLSEAEMAAYREPFLAAGEARRPTLSWPRQIPIAGTPADVVAIARDYAGWLSESPIPKLFINAEPGALTTGRMRDFCRTWPNQTEITVAGAHFIQEDSPDEIGAAIAAFVRRLRPA [Q35I] | 50.5 °C | -0.5 °C
MSLGAKPFGEKKFIEIKGRRMAYIDEGTGDPILFLHGNPTSSYLWRNIMPHCAGLGRLIACDLIGMGDSDKLDPSGPERYAYAEHRDYLDALWEALDLGDRVVLVVHDWGSALGFDWARRHRERVQGIAYMEAIAMPIEWADFPEQDRDLFQAFRSQAGEELVLQDNVFVEQVLPGLILRPLSEAEMAAYREPFLAAGEARRPTLSWPRQIPIAGTPADVVAIARDYAGWLSESPIPKLFINAEPGALTTGRMRDFCRTWPNQTEITVAGAHFIQEDSPDEIGAAIAAFVRRLRPA [Q35L] | 48.5 °C | -2.5 °C
MSLGAKPFGEKKFIEIKGRRMAYIDVGTGDPILFQHGNPTSSYLWRNIMPHCAGLGRLIACDLIGMGDSDKLDPSGPERYAYAEHRDYLDALWEALDLGDRVVLVVHDWGSALGFDWARRHRERVQGIAYMEAIAMPIEWADFPEQDRDLFQAFRSQAGEELVLQDNVFVEQVLPGLILRPLSEAEMAAYREPFLAAGEARRPTLSWPRQIPIAGTPADVVAIARDYAGWLSESPIPKLFINAEPGALTTGRMRDFCRTWPNQTEITVAGAHFIQEDSPDEIGAAIAAFVRRLRPA [E26V] | 51 °C | 0 °C
MSLGAKPFGEKKFIEIKGRRMAYIDQGTGDPILFQHGNPTSSYLWRNIMPHCAGLGRLIACDLIGMGDSDKLDPSGPERYAYAEHRDYLDALWEALDLGDRVVLVVHDWGSALGFDWARRHRERVQGIAYMEAIAMPIEWADFPEQDRDLFQAFRSQAGEELVLQDNVFVEQVLPGLILRPLSEAEMAAYREPFLAAGEARRPTLSWPRQIPIAGTPADVVAIARDYAGWLSESPIPKLFINAEPGALTTGRMRDFCRTWPNQTEITVAGAHFIQEDSPDEIGAAIAAFVRRLRPA [E26Q] | 51 °C | 0 °C
MSLGAKPFGEKKFIEIKGRRMAYIDHGTGDPILFQHGNPTSSYLWRNIMPHCAGLGRLIACDLIGMGDSDKLDPSGPERYAYAEHRDYLDALWEALDLGDRVVLVVHDWGSALGFDWARRHRERVQGIAYMEAIAMPIEWADFPEQDRDLFQAFRSQAGEELVLQDNVFVEQVLPGLILRPLSEAEMAAYREPFLAAGEARRPTLSWPRQIPIAGTPADVVAIARDYAGWLSESPIPKLFINAEPGALTTGRMRDFCRTWPNQTEITVAGAHFIQEDSPDEIGAAIAAFVRRLRPA [E26H] | 50 °C | -1 °C
MSLGAKPFGEKKFIEIKGRRMAYIDRGTGDPILFQHGNPTSSYLWRNIMPHCAGLGRLIACDLIGMGDSDKLDPSGPERYAYAEHRDYLDALWEALDLGDRVVLVVHDWGSALGFDWARRHRERVQGIAYMEAIAMPIEWADFPEQDRDLFQAFRSQAGEELVLQDNVFVEQVLPGLILRPLSEAEMAAYREPFLAAGEARRPTLSWPRQIPIAGTPADVVAIARDYAGWLSESPIPKLFINAEPGALTTGRMRDFCRTWPNQTEITVAGAHFIQEDSPDEIGAAIAAFVRRLRPA [E26R] | 50 °C | -1 °C
MCLGAKPFGEKKFIEIKGRRMAYIDEGTGDPILFQHGNPTSSYLWRCIMPHCAGLGRLIACDLIGMGDSDKLDPSGPERYAYAEHRDYLDALWEALDLGDRVVLVVHDWGSALGFDWARRHRERVQGIAYMEAIAMPIEWADFPEQDRDLFQAFRSQAGEELVLQDNVFVEQVLPGLILRPLSEAEMAAYREPFLAAGEARRPTLSWPRQIPIAGTPADVVAIARDYAGWLSESPIPKLFINAEPGALTTGRMRDFCRTWPNQTEITVAGAHFIQEDSPDEIGAAIAAFVRRLRPA [S2C N47C] | 48 °C | -3 °C
MSLGLKPFGEKKFIEIKGRRMAYIDEGTGDPILFQHGNPTSSYLWRNIMPHCAGLGRLIACDLIGMGDSDKLDPSGPERYAYAEHRDYLDALWEALDLGDRVVLVVHDWGSALGFDWARRHRERVQGIAYMEAIAMPIEWADFPEQDRDLFQAFRSQAGEELVLQDNVFVEQVLPGLILRPLSEAEMAAYREPFLAAGEARRPTLSWPRQIPIAGTPADVVAIARDYAGWLSESPIPKLFINAEPGALTTGRMRDFCRTWPNQTEITVAGAHFIQEDSPDEIGAAIAAFVRRLRPA [A5L] | 50 °C | -1 °C
MSLGEKPFGEKKFIEIKGRRMAYIDEGTGDPILFQHGNPTSSYLWRNIMPHCAGLGRLIACDLIGMGDSDKLDPSGPERYAYAEHRDYLDALWEALDLGDRVVLVVHDWGSALGFDWARRHRERVQGIAYMEAIAMPIEWADFPEQDRDLFQAFRSQAGEELVLQDNVFVEQVLPGLILRPLSEAEMAAYREPFLAAGEARRPTLSWPRQIPIAGTPADVVAIARDYAGWLSESPIPKLFINAEPGALTTGRMRDFCRTWPNQTEITVAGAHFIQEDSPDEIGAAIAAFVRRLRPA [A5E] | 51.5 °C | 0.5 °C
MSLGAEPFGEKKFIEIKGRRMAYIDEGTGDPILFQHGNPTSSYLWRNIMPHCAGLGRLIACDLIGMGDSDKLDPSGPERYAYAEHRDYLDALWEALDLGDRVVLVVHDWGSALGFDWARRHRERVQGIAYMEAIAMPIEWADFPEQDRDLFQAFRSQAGEELVLQDNVFVEQVLPGLILRPLSEAEMAAYREPFLAAGEARRPTLSWPRQIPIAGTPADVVAIARDYAGWLSESPIPKLFINAEPGALTTGRMRDFCRTWPNQTEITVAGAHFIQEDSPDEIGAAIAAFVRRLRPA [K6E] | 51 °C | 0 °C
MSSGAKPFGEKKFIEIKGRRMAYIDEGTGDPILFQHGNPTSSYLWRNIMPHCAGLGRLIACDLIGMGDSDKLDPSGPERYAYAEHRDYLDALWEALDLGDRVVLVVHDWGSALGFDWARRHRERVQGIAYMEAIAMPIEWADFPEQDRDLFQAFRSQAGEELVLQDNVFVEQVLPGLILRPLSEAEMAAYREPFLAAGEARRPTLSWPRQIPIAGTPADVVAIARDYAGWLSESPIPKLFINAEPGALTTGRMRDFCRTWPNQTEITVAGAHFIQEDSPDEIGAAIAAFVRRLRPA [L3S] | 50.5 °C | -0.5 °C
MSLGAKPFGEKKFIEIKGRLMAYIDEGTGDPILFQHGNPTSSYLWRNIMPHCAGLGRLIACDLIGMGDSDKLDPSGPERYAYAEHRDYLDALWEALDLGDRVVLVVHDWGSALGFDWARRHRERVQGIAYMEAIAMPIEWADFPEQDRDLFQAFRSQAGEELVLQDNVFVEQVLPGLILRPLSEAEMAAYREPFLAAGEARRPTLSWPRQIPIAGTPADVVAIARDYAGWLSESPIPKLFINAEPGALTTGRMRDFCRTWPNQTEITVAGAHFIQEDSPDEIGAAIAAFVRRLRPA [R20L] | 50 °C | -1 °C
MSLGCKPFGEKKFIEIKGRRMAYIDEGTGDPILFQHGNPTSSYLWRNIMPHCAGLGRLIACDLIGMGDSDKLDPSGPERYAYAEHRDYLDALWEALDLGDRVVLVVHDWGSALGFDWARRHRERVQGIAYMEAIAMPIEWADFPEQDRDLFQAFRSQAGEELVLQDNVFVEQVLPGLILRPLSECEMAAYREPFLAAGEARRPTLSWPRQIPIAGTPADVVAIARDYAGWLSESPIPKLFINAEPGALTTGRMRDFCRTWPNQTEITVAGAHFIQEDSPDEIGAAIAAFVRRLRPA [A5C A185C] | 56 °C and 55.5 °C | 5 °C and 6.5 °C
MSLGAKPFGEKKFIEIKGRCMAYIDEGTGDPILFQHGNPTSSYLWRNIMPHCAGLGRLIACDLIGMGDSCKLDPSGPERYAYAEHRDYLDALWEALDLGDRVVLVVHDWGSALGFDWARRHRERVQGIAYMEAIAMPIEWADFPEQDRDLFQAFRSQAGEELVLQDNVFVEQVLPGLILRPLSEAEMAAYREPFLAAGEARRPTLSWPRQIPIAGTPADVVAIARDYAGWLSESPIPKLFINAEPGALTTGRMRDFCRTWPNQTEITVAGAHFIQEDSPDEIGAAIAAFVRRLRPA [R20C D70C] | 45.5 °C | -3.5 °C
